Tests used:
[1] = molecular target: T1, human CD71 extracellular domain (human, UniProt P02786 89-760); assay: primary ELISA of colonies, luminescence
T1 construct: also called hCD71; human CD71-ECD

[2] = molecular target: T2, apical domain of human CD71 (human, UniProt P02786 189-383, limits assumed); assay: primary ELISA of colonies, luminescence
T2 construct: domain: apical domain; the panning antigen was 30% biotinylated; also called human apical domain of CD71

[3] = molecular target: T1, human CD71 extracellular domain; assay: primary ELISA; signal on hCD71 over signal on HSA
[4] = molecular target: T2, apical domain of human CD71; assay: primary ELISA; signal on apical domain over signal on HSA
[5] = molecular target: human CD71 on cells (SKBR3; SW620-rLuc-KRAS) (human, UniProt P02786 1-760); assay: cell-based or functional assay
Chain of human CD71 on cells (SKBR3; SW620-rLuc-KRAS) (P02786 whole entry): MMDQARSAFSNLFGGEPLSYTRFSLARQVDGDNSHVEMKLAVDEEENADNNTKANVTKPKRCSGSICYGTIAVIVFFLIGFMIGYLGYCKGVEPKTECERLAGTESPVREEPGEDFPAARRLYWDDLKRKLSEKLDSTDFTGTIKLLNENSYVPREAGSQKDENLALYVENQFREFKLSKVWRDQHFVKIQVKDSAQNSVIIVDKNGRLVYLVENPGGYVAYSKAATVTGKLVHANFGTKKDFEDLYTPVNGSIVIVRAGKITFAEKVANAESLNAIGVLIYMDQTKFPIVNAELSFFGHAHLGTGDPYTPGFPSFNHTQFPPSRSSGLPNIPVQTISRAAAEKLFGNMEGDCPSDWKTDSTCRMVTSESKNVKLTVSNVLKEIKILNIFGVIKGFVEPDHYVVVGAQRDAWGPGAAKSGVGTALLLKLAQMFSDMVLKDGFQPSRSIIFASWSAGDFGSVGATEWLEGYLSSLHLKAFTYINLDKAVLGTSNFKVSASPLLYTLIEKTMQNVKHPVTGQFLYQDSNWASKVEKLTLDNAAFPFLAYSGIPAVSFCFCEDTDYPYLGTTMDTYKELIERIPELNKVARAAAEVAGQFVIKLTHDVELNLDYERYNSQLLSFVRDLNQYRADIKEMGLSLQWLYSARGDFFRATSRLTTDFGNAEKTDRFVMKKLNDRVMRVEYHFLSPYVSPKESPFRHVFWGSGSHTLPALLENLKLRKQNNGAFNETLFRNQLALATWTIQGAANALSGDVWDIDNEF

T1 sequence (P02786 89-760): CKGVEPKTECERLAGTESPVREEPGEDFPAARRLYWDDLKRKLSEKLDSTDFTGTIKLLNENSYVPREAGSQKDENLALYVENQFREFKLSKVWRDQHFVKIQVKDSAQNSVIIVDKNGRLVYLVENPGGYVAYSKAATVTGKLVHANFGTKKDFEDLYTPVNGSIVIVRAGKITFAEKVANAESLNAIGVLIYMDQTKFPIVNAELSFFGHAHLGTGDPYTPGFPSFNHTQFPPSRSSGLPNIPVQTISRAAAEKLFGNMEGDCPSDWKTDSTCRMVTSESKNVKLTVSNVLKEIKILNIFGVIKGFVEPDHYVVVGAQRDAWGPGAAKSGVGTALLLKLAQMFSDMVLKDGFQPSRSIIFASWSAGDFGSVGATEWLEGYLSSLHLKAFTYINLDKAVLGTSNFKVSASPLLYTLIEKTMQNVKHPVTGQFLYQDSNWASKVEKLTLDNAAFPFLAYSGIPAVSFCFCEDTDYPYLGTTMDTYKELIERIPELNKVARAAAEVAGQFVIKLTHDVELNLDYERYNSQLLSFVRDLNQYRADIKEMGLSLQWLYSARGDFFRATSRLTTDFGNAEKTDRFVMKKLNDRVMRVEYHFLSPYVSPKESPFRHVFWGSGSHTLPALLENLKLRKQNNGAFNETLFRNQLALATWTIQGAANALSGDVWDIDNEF
T2 sequence (P02786 189-383 limits assumed): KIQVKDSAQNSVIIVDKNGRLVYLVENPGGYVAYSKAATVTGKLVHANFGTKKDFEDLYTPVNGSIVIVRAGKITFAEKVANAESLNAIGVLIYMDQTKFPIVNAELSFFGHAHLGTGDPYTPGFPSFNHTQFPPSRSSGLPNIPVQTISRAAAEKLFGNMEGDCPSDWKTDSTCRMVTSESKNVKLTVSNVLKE

hCD71, RLU [1] [RLU]	Apical domain, RLU [2] [RLU]	hCD71:HSA [3] [ratio]	Apical domain:HSA [4] [ratio]	LSA EC50 (luciferase reporter assay, SW620-rLuc-KRAS cells, 72 h) [5] [nM]	Binder
308000	5.87e+06	68	1290	–	CD71-binding FN3 domain of SEQ ID NO: 102 (designed binder, Screen 1 hit, tested from colonies in the primary ELISA; not shown: C-terminal poly-histidine tag added to each FN3 domain) MLPAPKNLVVSRVTEDSARLSWTAPDAAFDSFDIGYTEYGGYGEAIILQVPGSERSYDLTGLKPGTEYWVLIQGVKGGGSSVPLVAYFTT
6.95e+06	6.1e+06	897	787	–	CD71-binding FN3 domain of SEQ ID NO: 100 (designed binder, Screen 1 hit, tested from colonies in the primary ELISA; not shown: C-terminal poly-histidine tag added to each FN3 domain) MLPAPKNLVVSRVTEDSARLSWTAPDAAFDSFYIAYAEPRPDGEAILLLVPGSERSYDLTGLKPGTEYSVLIHGVKGGLLSSPLVASFTT
4.05e+06	6.06e+06	1470	2200	–	CD71-binding FN3 domain of SEQ ID NO: 116 (designed binder, Screen 1 hit, tested from colonies in the primary ELISA; not shown: C-terminal poly-histidine tag added to each FN3 domain) MLPAPKNLVVSRVTEDSARLSWTAPDAAFDSFYIAYAEPRPDGEAILLLVPGSERSYDLTGLKPGTEYSVLIHGVKGGLLSSPLIAGFTT
3.13e+06	4.81e+06	1230	1890	–	CD71-binding FN3 domain of SEQ ID NO: 106 (designed binder, Screen 1 hit, tested from colonies in the primary ELISA; not shown: C-terminal poly-histidine tag added to each FN3 domain) MLPAPKNLVVSRVTEDSARLSWTAPDAVFDSFYIAYAEPRPDGEAIGLYVPGSERSYDLTGLKPGTEYSVLIHGVKGGLLSSPLTASFTT
6.37e+06	5.3e+06	350	291	–	CD71-binding FN3 domain of SEQ ID NO: 103 (designed binder, Screen 1 hit, tested from colonies in the primary ELISA; not shown: C-terminal poly-histidine tag added to each FN3 domain) MLPAPKNLVVSRVTEDSARLSWTAPDAAFDSFYIAYAEPRPDGEAIILGVPGSERSYDLTGLKPGTEYSVLIHGVKGGLLSSPLSAYSTT
641000	3.75e+06	200	1170	–	CD71-binding FN3 domain of SEQ ID NO: 118 (designed binder, Screen 1 hit, tested from colonies in the primary ELISA; not shown: C-terminal poly-histidine tag added to each FN3 domain) MLPAPKNLVVSRVTEDSARLSWTAPDAAFDSFYIAYAEPRPDGEAITLWVPGSERSYDLTGLKPGTEYSVTIHGVKGGLLSSPLSAIFTT
3.81e+06	5.77e+06	1140	1720	–	CD71-binding FN3 domain of SEQ ID NO: 108 (designed binder, Screen 1 hit, tested from colonies in the primary ELISA; not shown: C-terminal poly-histidine tag added to each FN3 domain) MLPAPKNLVVSRVTEDSARLSWTAPDAAFDSFYIAYAEPRPDGEAILLQVPGSERSYDLTGLKPGTEYSVLIHGVKGGLLSSPLVAKFTT
340000	542000	78	125	–	CD71-binding FN3 domain of SEQ ID NO: 101 (designed binder, Screen 1 hit, tested from colonies in the primary ELISA; not shown: C-terminal poly-histidine tag added to each FN3 domain) MLPAPKNLVVSRVTEDSARLSWTAPDAAFDSFGIGYWERRWYGEAIVLTVPGSERSYDLTGLKPGTEYEVTIRGVKGGGYSGPLSAIFTT
5.41e+06	4.78e+06	2040	1800	–	CD71-binding FN3 domain of SEQ ID NO: 112 (designed binder, Screen 1 hit, tested from colonies in the primary ELISA; not shown: C-terminal poly-histidine tag added to each FN3 domain) MLPAPKNLVVSRVTEDSARLSWTAPDAAFDSFFIGYLEPQPPGEAIDLWVPGSERSYDLTGLKPGTEYNVTIQGVKGGFPSMPLSAIFTT
4.21e+06	5.33e+06	1120	1420	–	CD71-binding FN3 domain of SEQ ID NO: 117 (designed binder, Screen 1 hit, tested from colonies in the primary ELISA; not shown: C-terminal poly-histidine tag added to each FN3 domain) MLPAPKNLVVSRVTEDSARLSWTAPDAAFDSFFIGYLEPQPPGEAIWLLVPGSERSYDLTGLKPGTEYNVTIQGVKGGFPSTPLSAIFTT
6.03e+06	4.23e+06	1860	1300	–	CD71-binding FN3 domain of SEQ ID NO: 107 (designed binder, Screen 1 hit, tested from colonies in the primary ELISA; not shown: C-terminal poly-histidine tag added to each FN3 domain) MLPAPKNLVVSRVTEDSARLSWTAPDAAFDSFFIGYLEPQPPGEAIGLQVPGSERSYDLTGLKPGTEYNVTIQGVKGGFPSMPLSAIFTT
5.19e+06	4.58e+06	999	881	–	CD71-binding FN3 domain of SEQ ID NO: 115 (designed binder, Screen 1 hit, tested from colonies in the primary ELISA; not shown: C-terminal poly-histidine tag added to each FN3 domain) MLPAPKNLVVSRVTEDSARLSWTAPDAAFDSFFIGYLEPQPPGEAIDLYVPGSERSYDLTGLKPGIEYNVTIQGVKGGFPSLPLQAHFTT
3.94e+06	3.35e+06	1210	1030	–	CD71-binding FN3 domain of SEQ ID NO: 109 (designed binder, Screen 1 hit, tested from colonies in the primary ELISA; not shown: C-terminal poly-histidine tag added to each FN3 domain) MLPAPKNLVVSRVTEDSARLSWTAPDAAFDSFFIGYLEPQPPGEAIILHVPGSERSYDLTGLKPGTEYNVTIQGVKGGFPSLPLNANFTT
4.6e+06	5.94e+06	1640	2120	–	CD71-binding FN3 domain of SEQ ID NO: 113 (designed binder, Screen 1 hit, tested from colonies in the primary ELISA; not shown: C-terminal poly-histidine tag added to each FN3 domain) MLPAPKNLVVSRVTEDSARLSWTAPDAAFDSFFIGYLEPQPPGEAIYLLVPGSERSYDLTGLKPGTEYNVTIQGVKGGFPSDPLSAIFTT
3.7e+06	5.04e+06	1420	1940	–	CD71-binding FN3 domain of SEQ ID NO: 111 (designed binder, Screen 1 hit, tested from colonies in the primary ELISA; not shown: C-terminal poly-histidine tag added to each FN3 domain) MLPAPKNLVVSRVTEDSARLSWTAPDAAFDSFFIGYLEPQPPGEAISLWVPGSERSYDLTGLKPGTEYNVTIQGVKGGFPSIPLWAIFTT
6.36e+06	4.43e+06	216	150	–	CD71-binding FN3 domain of SEQ ID NO: 104 (designed binder, Screen 1 hit, tested from colonies in the primary ELISA; not shown: C-terminal poly-histidine tag added to each FN3 domain) MLPAPKNLVVSRVTEDSARLSWTAPDAAFDSFFIGYLEPQPPGEAIHLIVPGSERSYDLTGQKPGTEYNVTIQGVKGGFPSDPLVASFTT
–	–	–	–	0.63	CD71-binding FN3 domain of SEQ ID NO: 234 conjugated to KRAS2 siRNA (designed binder, conjugated to KRAS2 tool siRNA; site and linker not stated) MSLPAPKNLVVSRVTEDSARLSWTAPDAAFDSFFIGYLEPQPPGEAIALYVPGSERSYDLTGLKPGTEYNVTIQGVKGGFPSEPLVAHFTT
–	–	–	–	0.57	CD71-binding FN3 domain of SEQ ID NO: 290 conjugated to KRAS2 siRNA (designed binder, conjugated to KRAS2 tool siRNA; site and linker not stated) MSLPAPKNLVVSRVTEDSARLSWTAPDAAFDSFFIGYLEPQPPGEAIHLYVPGSERSYDLTGLKPGTEYNVTIQGVKGGFPSEPLVATFTT
–	–	–	–	0.39	CD71-binding FN3 domain of SEQ ID NO: 281 conjugated to KRAS2 siRNA (designed binder, conjugated to KRAS2 tool siRNA; site and linker not stated) MSLPAPKNLVVSRVTEDSARLSWTAPDAAFDSFFIGYLEPQPPGEAIALYVPGSERSYDLTGLKPGTEYNVTIQGVKGGFPSEPLIANFTT
–	–	–	–	0.54	CD71-binding FN3 domain of SEQ ID NO: 293 conjugated to KRAS2 siRNA (designed binder, conjugated to KRAS2 tool siRNA; site and linker not stated) MSLPAPKNLVVSRVTEDSARLSWTAPDAAFDSFFIGYLEPQPPGEAIDLYVPGSERSYDLTGLKPGTEYNVTIQGVKGGFPSHPLVATFTT
–	–	–	–	2.1	CD71-binding FN3 domain of SEQ ID NO: 270 conjugated to KRAS2 siRNA (designed binder, conjugated to KRAS2 tool siRNA; site and linker not stated) MSLPAPKNLVVSRVTEDSARLSWTAPDAAFDSFFIGYLEPQPPGEAIHLYVPGSERSYDLTGLKPGTEYNVTIQGVKGGFPSEPLIANSTT
–	–	–	–	0.75	CD71-binding FN3 domain of SEQ ID NO: 331 conjugated to KRAS2 siRNA (designed binder, conjugated to KRAS2 tool siRNA; site and linker not stated) MSLPAPKNLVVSRVTEDSARLSWTAPDAAFDSFFIGYLEPQPPGEAIHLYVPGSERSYDLTGLKPGTEYNVTIQGVKVGFPSEPLIANFTT
–	–	–	–	0.48	CD71-binding FN3 domain of SEQ ID NO: 973 conjugated to KRAS2 siRNA (designed binder, conjugated to KRAS2 tool siRNA; site and linker not stated) MSLPAPKNLVVSRVTEDSARLSWTAPDAAFDSFFIGYLEPQPPGEAIHLYVPGSERSYDLTGLKPGTEYNGTIQGVKVGFPSEPLIANFTT
–	–	–	–	0.47	CD71-binding FN3 domain of SEQ ID NO: 295 conjugated to KRAS2 siRNA (designed binder, conjugated to KRAS2 tool siRNA; site and linker not stated) MSLPAPKNLVVSRVTEDSARLSWTAPDAAFDSFFIGYLEPQPPGEAIDLYVPGSERSYDLTGLKPGTEYNVTIQGVKGGFPSEPLVATFTT
–	–	–	–	0.58	CD71-binding FN3 domain of SEQ ID NO: 333 conjugated to KRAS2 siRNA (designed binder, conjugated to KRAS2 tool siRNA; site and linker not stated) MSLPAPENLVVSRVTEDSARLSWTAPDAAFDSFFIGYLEPQPPGEAIALYVPGSERSYDLTGLKPGTEYNVTIQGVKGGFPSLPLVATFTT
–	–	–	–	0.49	CD71-binding FN3 domain of SEQ ID NO: 972 conjugated to KRAS2 siRNA (designed binder, conjugated to KRAS2 tool siRNA; site and linker not stated) MSLPAPKNLVVSRVTEDSARLSWTAPDAAFDSFFIGYLEPQPPGEAIALYVPGSERSYDLTGLKPGTEYNVTIQGAKGGFPSEPLVVHFTT
–	–	–	–	0.45	CD71-binding FN3 domain of SEQ ID NO: 264 conjugated to KRAS2 siRNA (designed binder, conjugated to KRAS2 tool siRNA; site and linker not stated) MSLPAPKNLVVSRVTEDSARLSWTAPDAAFDSFFIGYLEPQPPGEAIALYVPGSERSYDLTGLKPGTEYNVTIQGVKGGFPSEPLVVHFTT
1.51e+06	3.84e+06	503	1280	–	CD71-binding FN3 domain of SEQ ID NO: 105 (designed binder, Screen 1 hit, tested from colonies in the primary ELISA; not shown: C-terminal poly-histidine tag added to each FN3 domain) MLPAPKNLVVSRVTEDSARLSWTAPDAAFDSFHIVYHEPRPSGEAIWLWVPGSERSYDLTGLKPGTEYEVGIVSVKGGDLSVPLSAIFTT
5.17e+06	6e+06	2070	2400	–	CD71-binding FN3 domain of SEQ ID NO: 110 (designed binder, Screen 1 hit, tested from colonies in the primary ELISA; not shown: C-terminal poly-histidine tag added to each FN3 domain) MLPAPKNLVVSRVTEDSARLSWTAPDAAFDSFHIVYHEPRPSGEAIYLEVPGSERSYDLTGLKPGTEYEVGIVSVKGGDLSVPLRAHFTT
1.5e+06	3.59e+06	130	311	–	CD71-binding FN3 domain of SEQ ID NO: 114 (designed binder, Screen 1 hit, tested from colonies in the primary ELISA; not shown: C-terminal poly-histidine tag added to each FN3 domain) MLPAPKNLVVSRVTEDSARLSWTAPDAAFDSFHIVYHEPRPSGEAIWLFVPGSERSYDLTGLKPGTEYEVGIVSVKGGDLSVPLSAIFTT
